From article PMC12172446, “Murine norovirus allosteric escape mutants mimic gut activation” (Journal of Virology, 2025)

Biological target: the molecule itself
Assay: cryo-EM structure; purified virions, ~1 mg/mL, in 30 mM HEPES pH 7.4, 100 mM NaCl; nothing, CaCl2 or 10 mM GCDCA added (V339I), nothing added (D348E); icosahedral reconstruction of the capsid

Protein	binding result
Murine norovirus MNV-1 capsid protein VP1, V339I escape mutant (in purified virions) (natural protein, murine norovirus (MNV-1, genotype GV.1), UniProt Q80J94 1-541, looked up, Capsid protein VP1 (~58 kDa; N-terminal, shell and protruding domains) of murine norovirus MNV-1, as it stands in the purified virion, with the escape mutation V339I on the C'D' loop; also called V339I mutant virus; apo V339I; source: BV-2 cells infected with the MNV-1 mutant; virions purified (PEG precipitation, ultracentrifugation, sucrose gradient); copies: 180) MRMSDGAAPKANGSEASGQDLVPAAVEQAVPIQPVAGAALAAPAAGQINQIDPWIFQNFVQCPLGEFSISPRNTPGEILFDLALGPGLNPYLAHLSAMYTGWVGNMEVQLVLAGNAFTAGKVVVALVPPYFPKGSLTTAQITCFPHVMCDVRTLEPIQLPLLDVRRVLWHATQDQEESMRLVCMLYTPLRTNSPGDESFVVSGRLLSKPAADFNFVYLTPPIERTIYRMVDLPVIQPRLCTHARWPAPVYGLLVDPSLPSNPQWQNGRVHVDGTLLGTTPISGSWVSCFAAEAAYKFQSGTGEVATFTLIEQDGSAYVPGDRAAPLGYPDFSGQLEIEIQTETTKTGDKLKVTTFEMILGPTTNADQAPYQGRVFASVTAAASLDLVDGRVRAVPRSIYGFQDTIPEYNDGLLVPLAPPIGPFLPGEVLLRFRTYMRQIDTADAAAEAIDCALPQEFVSWFASNAFTVQSEALLLRYRNTLTGQLLFECKLYNEGYIALSYSGSGPLTFPTDGIFEVVSWVPRLYQLASVGSLATGRMLKQ	binds
Murine norovirus MNV-1 capsid protein VP1, D348E escape mutant (in purified virions) (natural protein, murine norovirus (MNV-1, genotype GV.1), UniProt Q80J94 1-541, looked up, Capsid protein VP1 (~58 kDa; N-terminal, shell and protruding domains) of murine norovirus MNV-1, as it stands in the purified virion, with the escape mutation D348E on the C'D' loop; also called D348E virus; apo D348E; source: BV-2 cells infected with the MNV-1 mutant; virions purified (PEG precipitation, ultracentrifugation, sucrose gradient); copies: 180) MRMSDGAAPKANGSEASGQDLVPAAVEQAVPIQPVAGAALAAPAAGQINQIDPWIFQNFVQCPLGEFSISPRNTPGEILFDLALGPGLNPYLAHLSAMYTGWVGNMEVQLVLAGNAFTAGKVVVALVPPYFPKGSLTTAQITCFPHVMCDVRTLEPIQLPLLDVRRVLWHATQDQEESMRLVCMLYTPLRTNSPGDESFVVSGRLLSKPAADFNFVYLTPPIERTIYRMVDLPVIQPRLCTHARWPAPVYGLLVDPSLPSNPQWQNGRVHVDGTLLGTTPISGSWVSCFAAEAAYKFQSGTGEVATFTLIEQDGSAYVPGDRAAPLGYPDFSGQLEIEVQTETTKTGEKLKVTTFEMILGPTTNADQAPYQGRVFASVTAAASLDLVDGRVRAVPRSIYGFQDTIPEYNDGLLVPLAPPIGPFLPGEVLLRFRTYMRQIDTADAAAEAIDCALPQEFVSWFASNAFTVQSEALLLRYRNTLTGQLLFECKLYNEGYIALSYSGSGPLTFPTDGIFEVVSWVPRLYQLASVGSLATGRMLKQ	binds
